According to patent US20040259781A1 (Novartis, published 2004):
Blank lines part the entries; values can stand above or below the molecule they belong to.

Tests used:
[1] = molecular target: Fibronectin (purified from horse serum) (horse) (UniProt Q28377); assay: cell-based or functional assay
[2] = molecular target: T1, Syndecan-1 overexpressed on T98G glioblastoma cells (mouse, UniProt P18828 23-311); assay: GST pull-down of cell surface-bound FNIII13 and western blot, immunofluorescence
T1 construct: whole, on cells; also called T98G:S1
T1 sequence (looked up): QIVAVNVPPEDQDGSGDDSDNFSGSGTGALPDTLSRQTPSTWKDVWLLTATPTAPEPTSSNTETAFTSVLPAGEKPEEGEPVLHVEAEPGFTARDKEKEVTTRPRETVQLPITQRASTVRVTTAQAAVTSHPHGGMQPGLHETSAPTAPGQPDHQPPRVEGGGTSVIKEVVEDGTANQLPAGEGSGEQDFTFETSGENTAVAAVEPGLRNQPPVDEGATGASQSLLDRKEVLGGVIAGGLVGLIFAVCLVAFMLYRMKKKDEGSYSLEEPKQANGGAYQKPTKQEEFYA

[3] = scale: relative increase in cpm over cells plated on fibronectin

Fibronectin (purified from horse serum) (horse), sequence (Q28377 32-2477): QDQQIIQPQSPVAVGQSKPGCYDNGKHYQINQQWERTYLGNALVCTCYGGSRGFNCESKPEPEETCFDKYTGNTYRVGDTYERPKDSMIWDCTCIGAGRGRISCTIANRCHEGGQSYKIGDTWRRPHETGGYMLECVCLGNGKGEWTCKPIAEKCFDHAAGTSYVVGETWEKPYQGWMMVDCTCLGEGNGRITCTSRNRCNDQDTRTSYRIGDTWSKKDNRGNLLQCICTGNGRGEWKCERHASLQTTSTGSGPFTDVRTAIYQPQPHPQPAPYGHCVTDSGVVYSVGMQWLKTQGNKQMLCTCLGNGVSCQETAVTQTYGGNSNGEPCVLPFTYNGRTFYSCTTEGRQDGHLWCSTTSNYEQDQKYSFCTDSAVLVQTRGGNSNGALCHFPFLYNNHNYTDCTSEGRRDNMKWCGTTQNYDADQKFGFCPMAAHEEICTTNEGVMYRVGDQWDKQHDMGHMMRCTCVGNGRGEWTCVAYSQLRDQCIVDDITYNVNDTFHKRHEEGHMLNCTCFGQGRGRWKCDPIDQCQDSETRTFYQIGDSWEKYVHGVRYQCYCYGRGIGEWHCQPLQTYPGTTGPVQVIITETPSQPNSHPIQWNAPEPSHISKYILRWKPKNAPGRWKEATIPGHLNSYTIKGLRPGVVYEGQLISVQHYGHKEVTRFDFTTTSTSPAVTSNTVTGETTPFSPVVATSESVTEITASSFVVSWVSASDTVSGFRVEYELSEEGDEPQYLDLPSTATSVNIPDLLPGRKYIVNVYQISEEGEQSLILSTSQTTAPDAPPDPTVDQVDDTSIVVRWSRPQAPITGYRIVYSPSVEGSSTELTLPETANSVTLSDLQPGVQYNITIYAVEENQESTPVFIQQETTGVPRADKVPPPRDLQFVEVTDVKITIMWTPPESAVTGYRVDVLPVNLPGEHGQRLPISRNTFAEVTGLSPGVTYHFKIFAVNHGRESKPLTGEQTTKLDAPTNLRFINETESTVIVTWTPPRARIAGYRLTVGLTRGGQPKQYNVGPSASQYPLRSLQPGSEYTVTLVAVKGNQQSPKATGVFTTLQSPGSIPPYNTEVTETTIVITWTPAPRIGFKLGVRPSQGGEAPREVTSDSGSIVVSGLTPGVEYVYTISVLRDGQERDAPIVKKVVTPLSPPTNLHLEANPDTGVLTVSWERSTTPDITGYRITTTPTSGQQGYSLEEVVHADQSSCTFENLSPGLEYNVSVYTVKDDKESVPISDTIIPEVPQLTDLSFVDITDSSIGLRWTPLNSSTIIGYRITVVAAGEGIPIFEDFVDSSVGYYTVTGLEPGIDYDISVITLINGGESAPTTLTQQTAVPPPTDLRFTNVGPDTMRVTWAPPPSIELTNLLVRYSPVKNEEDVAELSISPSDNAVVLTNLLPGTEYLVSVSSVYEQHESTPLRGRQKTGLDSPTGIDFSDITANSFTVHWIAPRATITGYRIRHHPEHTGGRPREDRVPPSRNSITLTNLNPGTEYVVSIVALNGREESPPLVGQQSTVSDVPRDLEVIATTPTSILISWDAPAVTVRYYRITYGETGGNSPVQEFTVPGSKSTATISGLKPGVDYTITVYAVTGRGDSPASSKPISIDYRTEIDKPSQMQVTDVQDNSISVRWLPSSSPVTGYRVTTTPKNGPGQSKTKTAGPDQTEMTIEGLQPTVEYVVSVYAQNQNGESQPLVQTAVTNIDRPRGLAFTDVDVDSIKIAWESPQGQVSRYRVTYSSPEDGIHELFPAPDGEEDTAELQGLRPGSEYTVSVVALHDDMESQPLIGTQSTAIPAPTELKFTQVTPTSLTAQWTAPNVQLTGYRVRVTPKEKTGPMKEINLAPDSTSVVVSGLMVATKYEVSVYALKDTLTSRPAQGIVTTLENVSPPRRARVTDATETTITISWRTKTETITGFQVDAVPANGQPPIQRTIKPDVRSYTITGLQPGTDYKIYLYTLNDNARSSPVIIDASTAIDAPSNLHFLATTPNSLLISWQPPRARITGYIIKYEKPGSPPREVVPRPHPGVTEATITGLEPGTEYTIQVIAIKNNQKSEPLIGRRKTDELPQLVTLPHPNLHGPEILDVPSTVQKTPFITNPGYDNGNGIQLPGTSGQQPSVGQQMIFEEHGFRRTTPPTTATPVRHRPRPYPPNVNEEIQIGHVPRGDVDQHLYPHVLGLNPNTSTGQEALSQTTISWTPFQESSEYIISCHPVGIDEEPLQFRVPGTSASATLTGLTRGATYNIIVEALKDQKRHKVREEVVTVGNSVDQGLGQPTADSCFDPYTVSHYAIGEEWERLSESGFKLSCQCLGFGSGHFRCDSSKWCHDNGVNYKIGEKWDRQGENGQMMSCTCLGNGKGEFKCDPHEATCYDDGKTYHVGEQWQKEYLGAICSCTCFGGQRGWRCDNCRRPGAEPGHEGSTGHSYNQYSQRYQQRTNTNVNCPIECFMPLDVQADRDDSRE

CHO-B2 cells (ITS) attached on FN/TN substratum, 20 h (% of cells attached on fibronectin) [1]: 31.5
CHO-B2α27 cells (ITS) attached on FN/TN substratum, 20 h (% of cells attached on fibronectin) [1]: 45.1
CHO-K1 cells (ITS) attached on FN/TN substratum, 20 h (% of cells attached on fibronectin) [1]: 37.9
MDA MB 435 cells (insulin) attached on FN/TN substratum, 20 h (% of cells attached on fibronectin) [1]: 62.2
MDA MB 435 cells attached on FN/TN substratum, 1 h (% of cells attached on fibronectin) [1]: 24.5
MDA-MB435 cell number on fibronectin/tenascin-C against fibronectin, 51 h [1]: 24 % more cells
MDA-MB435 cell number on fibronectin/tenascin-C against fibronectin, 75 h [1]: 33 % more cells
T98G cells (PDGF-BB) attached on FN/TN substratum, 20 h (% of cells attached on fibronectin) [1]: 50.4
T98G cells attached on FN/TN substratum, 1 h (% of cells attached on fibronectin) [1]: 31.9
T98G cells partially spread on mixed fibronectin/tenascin-C substratum after 20 h [1]: 45%
DNA replication (3H-thymidine incorporation) of CHO-B2 cells on FN/TN [1, 3]: 2.6
DNA replication (3H-thymidine incorporation) of CHO-B2α27 cells on FN/TN [1, 3]: 2.5
DNA replication (3H-thymidine incorporation) of CHO-K1 cells on FN/TN [1, 3]: 2.3
DNA replication (3H-thymidine incorporation) of MDA MB 435 cells on FN/TN [1, 3]: 1.8
DNA replication (3H-thymidine incorporation) of T98G cells on FN/TN [1, 3]: 3
Molecule: Full length chicken tenascin-C TN260 (from UniProt P10039 34-1808)

attachment of syndecan-4 overexpressing T98G:S4 cells on fibronectin/tenascin-C substratum [1]: 64.7%
Molecule: Syndecan-4 overexpressed on T98G glioblastoma cells (receptor)

binding result [2]: no binding
B1: Recombinant 13th fibronectin type III repeat (FNIII13) (other)
chain: NVSPPRRARVTDATETTITISWRTKTETITGFQVDAVPANGQTPIQRTIKPDVRSYTITGLQPGTDYKIYLYTLNDNARSSPVVIDAST
notes: Obtained as in Bloom et al 1999; also called GST-tagged FNIII13; not shown: GST tag and His tag (pulled down with glutathione Sepharose, detected with anti-GST and anti-His, isolated on Ni-NTA)
